In patent US20190359687A1 (Bayer, published 2019):
Where a chain is given by its changes, count along the chain named. Numbers in names are those of the source. No end group written: not given here.

T1: human glycophorin A on human red blood cells or red blood cell membranes (human, UniProt P02724 20-150)
T1 construct: whole, on cells; also called hRBC; human RBC membranes
T1 sequence (looked up): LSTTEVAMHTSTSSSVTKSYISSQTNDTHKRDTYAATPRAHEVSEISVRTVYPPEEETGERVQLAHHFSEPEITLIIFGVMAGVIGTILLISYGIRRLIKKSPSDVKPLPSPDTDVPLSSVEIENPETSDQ

T2: GP7 peptide of the human GPA ectodomain (human, not fully specified (N-terminus))
T2 peptide: SVRTVYPP

T3: recombinant human glycophorin A ectodomain protein (human, UniProt P02724 20-91)
T3 construct: 72 amino acids of the extracellular region; also called Hu-rec GPA
T3 sequence: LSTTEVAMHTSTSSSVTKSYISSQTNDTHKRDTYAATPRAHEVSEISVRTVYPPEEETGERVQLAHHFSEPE

T4: native human glycophorin A protein (human, UniProt P02724 20-150)
T4 construct: mature; also called Hu-nat GPA
T4 sequence (looked up): T1 sequence (looked up)

B1: TPP-7790, affinity matured 6C12 Fab (Fab, V domains shown)
VH: EVQLVQSGAEVKKPGASVKVSCKASGYTFTTYAIHWVRQAPGQGLEWMGYINPSSGYTRYNPKFKHRVTMTRDKSTSTAYMELRSLRSDDTAVYYCWTGTRDYWGQGTTVTVSS
VL: DIQLTQSPSFLSASVGDRVTITCRASSSVRYIYWFQQKPGKAPKLLIYATSFLQSGVPSRFSGSGSGTEYTLTISSLQPEDFATYYCHQRNSFPYTFGQGTKLEIK
notes: Tested as Fab with a 6xHIS tag
B2: TPP-5906, humanized and germlined 6C12 Fab; VL: (S24R, A26S, S49A, P54Q, F95Y); VH: (I48M, D56G, D66G, L70M, T72R) (Fab, V domains shown)
VH: B1 VH with A33T, H66G, W97Q
VL: DIQLTQSPSFLSASVGDRVTITCRASSSVSYIYWFQQKPGKAPKLLIYATSTLQSGVPSRFSGSGSGTEYTLTISSLQPEDFATYYCHQRNSFPYTFGQGTKLEIKR
notes: The text says that a 6xHIS tag is present on the Fabs in the peptide ELISA; it is not in the printed chains

Key:
[1] = target: T5, Cynomolgus monkey glycophorin A on Cynomolgus monkey red blood cells or red blood cell membranes (Cynomolgus monkey); assay: Fab on intact cyno RBC, unbound Fab by ELISA; 120 min after 200-fold dilution
T5 construct: whole, on cells; also called Cyno RBC; Cynomolgus monkey RBC membranes
Protocol: (§1) The binding of affinity matured Fab antibodies to intact Cynomolgus monkey RBC was measured. Cynomolgus monkey RBC were isolated from fresh anti-coagulated blood by centrifugation through a ficol gradient and washing in PBS buffer. RBC diluted to 1/10th of normal hematocrit were incubated with the Fab at a final concentration of 7 ug/ml for 1 hour at room temperature on a rotating shaker after which a sample was taken and the RBC were pelleted by centrifugation and the supernatant was collected. The remaining RBC suspension was diluted 200-fold in PBS buffer and incubated for a total of 2 hours at room temperature on a rotating shaker and samples were removed at 0, 5 min, 20 min, 1 h and 2 h and the RBC pelleted and the supernatant collected. […] The amount of Fab in the supernatants was then measured using an ELISA assay and the results used to calculate the percentage of the input Fab that was bound to the RBC.

[2] = target: T1, human glycophorin A on human red blood …; assay: Fab on intact human RBC, unbound Fab by ELISA; 20 min after 200-fold dilution
Protocol: The binding of affinity matured Fab antibodies to intact human RBC was also measured. Human RBC were isolated from fresh anti-coagulated normal human blood by centrifugation through a ficol gradient and washing in PBS buffer. RBC diluted to 1/10th of normal hematocrit were incubated with purified Fab antibodies at a final concentration of 7 ug/ml for 1 hour at room temperature on a rotating shaker after which a sample was taken and the RBC were pelleted by centrifugation and the supernatant was collected. The remaining RBC suspension was diluted 200-fold in PBS buffer and incubated for a total of 2 hours at room temperature on a rotating shaker and samples were removed at 0, 5 min, 20 min, 1 h and 2 h and the RBC pelleted and the supernatant collected. The amount of Fab in the supernatants was then measured using an ELISA assay and the results used to calculate the percentage of the input Fab that was bound to the RBC. […] The percentage that remains bound after 200-fold dilution of the RBC suspension is an indication of the overall strength of the binding to human RBC.

[3] = target: T1, human glycophorin A on human red blood …; assay: SPR (Biacore), Fab on human RBC membranes; T½ = 0.69/kd; * not accurate
Protocol: (§2) Kinetic analysis of the antibody binding to human red blood cell membranes was also performed using surface plasmon resonance (SPR) using a Biacore instrument. In this assay membranes prepared from human red blood cells were attached to a L1 sensor matrix and antibodies were flowed over the RBC membranes.
(§3) The binding kinetics of the affinity matured Fab antibodies was also measured.

[4] = target: T5, Cynomolgus monkey glycophorin A on …; assay: Fab on intact cyno RBC, unbound Fab by ELISA; 5 min after 200-fold dilution
[5] = target: T5, Cynomolgus monkey glycophorin A on …; assay: Fab 7 ug/ml on intact cyno RBC, unbound Fab by ELISA; pre-dilution
Protocol: as §1

[6] = target: T5, Cynomolgus monkey glycophorin A on …; assay: Fab on intact cyno RBC, unbound Fab by ELISA; 60 min after 200-fold dilution
Protocol: as §1

[7] = target: T1, human glycophorin A on human red blood …; assay: SPR (Biacore), Fab on human RBC membranes; * not accurate, instrument limit
Protocol: as §2, §3

[8] = target: T2, GP7 peptide of the human GPA ectodomain; assay: ELISA, Fab 0.05 ug/ml on biotin-peptide on streptavidin plate
Description: These peptides were attached to the surface of a streptavidin coated plate via a biotin moiety that was present at the N-terminus of each peptide.

[9] = target: T5, Cynomolgus monkey glycophorin A on …; assay: Fab on intact cyno RBC, unbound Fab by ELISA; 0 min after 200-fold dilution
Protocol: as §1

[10] = target: T5, Cynomolgus monkey glycophorin A on …; assay: Fab on intact cyno RBC, unbound Fab by ELISA; 20 min after 200-fold dilution
Protocol: as §1

[11] = target: T1, human glycophorin A on human red blood …; assay: ELISA, Fab on coated human RBC membranes
Protocol: These membranes are prepared by first isolating red blood cells from citrated whole blood. Citrated whole blood is layered on to Ficol and centrifuged at low speed for 20 minutes to pellet the red blood cells. The supernatant containing plasma and other blood cells is discarded and the red blood cell pellet is subsequently washed 3 times in 10 cell volumes of phosphate buffered saline (PBS). A 10 ml pellet of purified red blood cells is resuspended in 30 ml of cold low osmorality 20 mM phosphate buffer (pH7.4) and incubated for 30 mins to break open the RBC. After Centrifugation at 10,000 rpm for 30 min at 5° C. the hemoglobin containing supernatant is discarded. To the membrane pellet another 30 ml of 20 mM phosphate buffer is added and the sample centrifuged again at 10,000 rpm for 30 min at 5° C. to pellet the membrane fraction. This wash and centrifugation step is repeated another 4 times. The red blood cell membranes are then resuspended in 20 mL of PBS to achieve an equivalent of approximately 2.5E9 cells/mL and stored frozen at −20° C. Binding of antibodies to RBC ghost can be measured by ELISA in which the RBC ghost suspension (5×10⁶ in 100 ul PBS) was added to each well of flat bottom 96-well ELISA microtiter plates (2HB, Immunolon) and the plates incubated overnight at 4° C. The plates were blocked with Starting blocking buffer (Thermo Fisher) for 2 hours at room temperature (RT). Antibodies or other test molecules were added to each well and incubated for 1.5 hours at RT. After 4 washes 100 ul of an appropriate detection antibody was added to each well and incubated for 1 hour at RT. After 4 washes the detection antibody was measured using appropriate detection reagents.

[12] = target: T6, Cynomolgus monkey recombinant glycophorin A ectodomain (Cynomolgus monkey); assay: ELISA, Fab on coated recombinant cyno GPA ectodomain
T6 construct: extracellular domain

[13] = target: T3, recombinant human glycophorin A …; assay: ELISA, Fab on coated recombinant human GPA ectodomain
[14] = target: T1, human glycophorin A on human red blood …; assay: SPR (Biacore), Fab over human RBC membranes, 1:1 fit; * slight deviation possible
Protocol: as §2

[15] = target: T1, human glycophorin A on human red blood …; assay: SPR (Biacore), Fab on human RBC membranes; T½ = 0.69/kd
Protocol: as §2, §3

[16] = target: T4, native human glycophorin A protein; assay: ELISA, Fab on coated native human GPA
[17] = target: T5, Cynomolgus monkey glycophorin A on …; assay: ELISA, Fab on coated cyno RBC membranes

Row | Binder | percentage of input antibody bound [1] [%] | percentage of input antibody bound [2] [%] | Estimated T½ [3] [days] | percentage of input antibody bound [4] [%] | percentage of input antibody bound [5] [%] | percentage of input antibody bound [6] [%] | Kd [7] [pM] | koff [7] [s⁻¹] | binding signal in ELISA (relative light units) [8] [RLU] | percentage of input antibody bound [9] [%] | percentage of input antibody bound [10] [%] | binding in ELISA relative to parental Fab [11] | binding in ELISA relative to parental Fab [12] | binding in ELISA relative to parental Fab [13] | Kd [14] [pM] | koff [14] [s⁻¹] | kon [14] [M⁻¹ s⁻¹] | Estimated T½ [15] [days] | binding in ELISA relative to parental Fab [16] | binding in ELISA relative to parental Fab [17]
1 | B1 | 85 | 88 | 596 | 90 | 94 | 87 | < 2.33 | < 2e-05 | 0 | 87 | 90 | – | – | – | – | – | – | – | – | –
2 | B2 | – | 4 | – | – | – | – | – | – | -1 | – | – | 93.5 relative to parental Fab | 1.4 relative to parental Fab | 7.2 relative to parental Fab | 900 | 0.0034 | 4e+06 | 0.00139 | 12.9 relative to parental Fab | 2.5 relative to parental Fab
